The text below walks through data of the supplement of paper PMC9112550, “Optimization of the antimicrobial peptide Bac7 by deep mutational scanning” (BMC Biology, 2022).

In this data set the test system is Escherichia coli TOP10. Description: shrunken log2 fold change of peptide-encoding DNA abundance (4.5 h post-induction vs induction); higher = less antimicrobial activity (less host growth inhibition). Conditions: time post-induction: 4.5 h; library: site-saturation at positions 5, 18, 19, 20.
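Further: peptides expressed intracellularly from a pBAD plasmid library in pooled LB shake-flask culture, induced with 0.3% L-arabinose, DNA abundance read by NGS, three biological replicates, DESeq2 with apeglm shrinkage.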

Take RRIRGRPPRLPRPRPRPHHWPRP: the “shrunken log2 fold change” value worked out at 0.431.

Consider RRIRLRPPRLPRPRPRPPDTPRP, for which the “shrunken log2 fold change” value is 0.257.

Turning to RRIRFRPPRLPRPRPRPWMEPRP, the “shrunken log2 fold change” value was -0.706.

Regarding RRIRNRPPRLPRPRPRPASIPRP, the “shrunken log2 fold change” value was -0.0365.

On to RRIRMRPPRLPRPRPRPSTGPRP, for which the “shrunken log2 fold change” value was 0.17.

Take RRIRNRPPRLPRPRPRPKYWPRP: the “shrunken log2 fold change” value is -0.387.

In the case of RRIRLRPPRLPRPRPRPYSHPRP, the “shrunken log2 fold change” value is -0.444.

On to RRIRHRPPRLPRPRPRPSGFPRP, for which the “shrunken log2 fold change” value came to 0.112.

On to RRIRKRPPRLPRPRPRPFVWPRP, for which the “shrunken log2 fold change” value is -0.0438.

For RRIRSRPPRLPRPRPRPKHSPRP, the “shrunken log2 fold change” value was -0.572.

For RRIRWRPPRLPRPRPRPNIFPRP, the “shrunken log2 fold change” value is 0.0551.

Consider RRIRLRPPRLPRPRPRPSTVPRP, for which the “shrunken log2 fold change” value was -0.938.

For the sequence RRIRFRPPRLPRPRPRPGPHPRP, the “shrunken log2 fold change” value turned out to be 0.305.

In the case of RRIRARPPRLPRPRPRPKCKPRP, the “shrunken log2 fold change” value was found to be 0.278.

Consider RRIRPRPPRLPRPRPRPCPGPRP, for which the “shrunken log2 fold change” value was -0.0306.

As to RRIRRRPPRLPRPRPRPHVRPRP, the “shrunken log2 fold change” value stood at 0.0936.

RRIRERPPRLPRPRPRPIYCPRP: the “shrunken log2 fold change” value was -0.143.

As for RRIRLRPPRLPRPRPRPMSCPRP, the “shrunken log2 fold change” value was determined as 0.0448.

Take RRIRPRPPRLPRPRPRPRWLPRP: the “shrunken log2 fold change” value stood at 0.299.

As for RRIRDRPPRLPRPRPRPSHIPRP, the “shrunken log2 fold change” value is -1.15.

Consider RRIRQRPPRLPRPRPRPTVAPRP, for which the “shrunken log2 fold change” value turned out to be 0.118.

On to RRIRQRPPRLPRPRPRPDFCPRP, for which the “shrunken log2 fold change” value was -0.129.

Regarding RRIRMRPPRLPRPRPRPFTPPRP, the “shrunken log2 fold change” value is -0.397.

With RRIRARPPRLPRPRPRPGDAPRP, the “shrunken log2 fold change” value came to 0.711.

Take RRIRCRPPRLPRPRPRPFRRPRP: the “shrunken log2 fold change” value is -0.237.

On to RRIRDRPPRLPRPRPRPNLLPRP, for which the “shrunken log2 fold change” value was -0.0507.

Turning to RRIRGRPPRLPRPRPRPCHVPRP, the “shrunken log2 fold change” value is -0.172.

As to RRIRSRPPRLPRPRPRPFFQPRP, the “shrunken log2 fold change” value was -0.105.

For the sequence RRIRARPPRLPRPRPRPTTHPRP, the “shrunken log2 fold change” value is 0.38.

With RRIRCRPPRLPRPRPRPGCQPRP, the “shrunken log2 fold change” value came to 0.00667.

Consider RRIRNRPPRLPRPRPRPIKYPRP, for which the “shrunken log2 fold change” value was -0.068.

As for RRIRGRPPRLPRPRPRPKSYPRP, the “shrunken log2 fold change” value amounted to 0.685.

As for RRIRLRPPRLPRPRPRPYWYPRP, the “shrunken log2 fold change” value was -0.542.

Turning to RRIRWRPPRLPRPRPRPDMGPRP, the “shrunken log2 fold change” value was 0.454.

Take RRIRHRPPRLPRPRPRPTDPPRP: the “shrunken log2 fold change” value was 0.138.

As for RRIRFRPPRLPRPRPRPAKCPRP, the “shrunken log2 fold change” value was -0.00691.

With RRIRMRPPRLPRPRPRPSHEPRP, the “shrunken log2 fold change” value came out at 0.267.

As to RRIRGRPPRLPRPRPRPQYGPRP, the “shrunken log2 fold change” value was -0.008.

Regarding RRIRPRPPRLPRPRPRPWWHPRP, the “shrunken log2 fold change” value was found to be 0.0413.

For the sequence RRIRWRPPRLPRPRPRPNGLPRP, the “shrunken log2 fold change” value was 0.145.

With RRIRPRPPRLPRPRPRPHQWPRP, the “shrunken log2 fold change” value is -0.0599.

Take RRIRMRPPRLPRPRPRPHEHPRP: the “shrunken log2 fold change” value came to 0.301.

On to RRIRARPPRLPRPRPRPEAHPRP, for which the “shrunken log2 fold change” value was 0.0341.

For RRIRIRPPRLPRPRPRPMWHPRP, the “shrunken log2 fold change” value was -0.176.

RRIRARPPRLPRPRPRPNCFPRP: the “shrunken log2 fold change” value was determined as 0.0761.

Turning to RRIRLRPPRLPRPRPRPCFTPRP, the “shrunken log2 fold change” value is -0.497.

As for RRIRHRPPRLPRPRPRPFYGPRP, the “shrunken log2 fold change” value was -0.0135.

For RRIRGRPPRLPRPRPRPRPGPRP, the “shrunken log2 fold change” value was 1.34.

In the case of RRIRDRPPRLPRPRPRPLDPPRP, the “shrunken log2 fold change” value is 0.0323.

RRIRSRPPRLPRPRPRPDGKPRP: the “shrunken log2 fold change” value is 0.00369.

With RRIRNRPPRLPRPRPRPRNMPRP, the “shrunken log2 fold change” value is -0.171.

On to RRIRNRPPRLPRPRPRPMMMPRP, for which the “shrunken log2 fold change” value is -0.0535.

On to RRIRYRPPRLPRPRPRPYDSPRP, for which the “shrunken log2 fold change” value is -0.0285.

Take RRIRMRPPRLPRPRPRPTIPPRP: the “shrunken log2 fold change” value is -0.316.

Regarding RRIRGRPPRLPRPRPRPEGCPRP, the “shrunken log2 fold change” value came to 1.65.

In the case of RRIRCRPPRLPRPRPRPFLWPRP, the “shrunken log2 fold change” value was -0.119.

Take RRIRARPPRLPRPRPRPCEVPRP: the “shrunken log2 fold change” value came out at 3.46.

As to RRIRQRPPRLPRPRPRPACAPRP, the “shrunken log2 fold change” value amounted to 0.587.

As for RRIRERPPRLPRPRPRPKDQPRP, the “shrunken log2 fold change” value was determined as 0.188.

Turning to RRIRLRPPRLPRPRPRPWWSPRP, the “shrunken log2 fold change” value is -0.0019.

With RRIRIRPPRLPRPRPRPCFPPRP, the “shrunken log2 fold change” value was -0.569.

On to RRIRSRPPRLPRPRPRPSGRPRP, for which the “shrunken log2 fold change” value was determined as 0.185.

For RRIRLRPPRLPRPRPRPDPQPRP, the “shrunken log2 fold change” value is -0.00554.

On to RRIRQRPPRLPRPRPRPAKLPRP, for which the “shrunken log2 fold change” value stood at 0.0771.

As to RRIRNRPPRLPRPRPRPWAAPRP, the “shrunken log2 fold change” value was -0.109.

Regarding RRIRRRPPRLPRPRPRPNGQPRP, the “shrunken log2 fold change” value is -0.00184.

RRIRHRPPRLPRPRPRPWLQPRP: the “shrunken log2 fold change” value turned out to be 0.0358.

Regarding RRIRQRPPRLPRPRPRPVSPPRP, the “shrunken log2 fold change” value is -0.0264.

For the sequence RRIRGRPPRLPRPRPRPKCAPRP, the “shrunken log2 fold change” value was found to be 1.61.

For RRIRCRPPRLPRPRPRPSPAPRP, the “shrunken log2 fold change” value was found to be 1.35.

Turning to RRIRGRPPRLPRPRPRPQRFPRP, the “shrunken log2 fold change” value was 0.139.

As to RRIRARPPRLPRPRPRPDGIPRP, the “shrunken log2 fold change” value turned out to be 0.446.

With RRIRERPPRLPRPRPRPLHDPRP, the “shrunken log2 fold change” value amounted to 0.0501.

As for RRIRPRPPRLPRPRPRPEYNPRP, the “shrunken log2 fold change” value is -0.624.

Regarding RRIRLRPPRLPRPRPRPTLLPRP, the “shrunken log2 fold change” value was 0.0589.

For RRIRLRPPRLPRPRPRPPESPRP, the “shrunken log2 fold change” value was 0.367.

With RRIRCRPPRLPRPRPRPLHMPRP, the “shrunken log2 fold change” value was -0.295.

For the sequence RRIRLRPPRLPRPRPRPCLDPRP, the “shrunken log2 fold change” value is -0.0475.

For the sequence RRIRTRPPRLPRPRPRPIRHPRP, the “shrunken log2 fold change” value was -0.438.

For the sequence RRIRKRPPRLPRPRPRPRKYPRP, the “shrunken log2 fold change” value is -0.211.

On to RRIRIRPPRLPRPRPRPAKCPRP, for which the “shrunken log2 fold change” value is -0.126.

Consider RRIRMRPPRLPRPRPRPESNPRP, for which the “shrunken log2 fold change” value is 0.102.

As for RRIRNRPPRLPRPRPRPKRCPRP, the “shrunken log2 fold change” value came to 0.406.

With RRIRSRPPRLPRPRPRPLHRPRP, the “shrunken log2 fold change” value is -0.216.

RRIRHRPPRLPRPRPRPYKRPRP: the “shrunken log2 fold change” value is -0.051.

In the case of RRIRHRPPRLPRPRPRPTYPPRP, the “shrunken log2 fold change” value came to 0.0921.

In the case of RRIRLRPPRLPRPRPRPMQLPRP, the “shrunken log2 fold change” value was -0.21.

Regarding RRIRGRPPRLPRPRPRPSAWPRP, the “shrunken log2 fold change” value is 1.94.

Regarding RRIRLRPPRLPRPRPRPFNRPRP, the “shrunken log2 fold change” value is -0.00257.

For RRIRHRPPRLPRPRPRPALRPRP, the “shrunken log2 fold change” value amounted to 0.269.

With RRIRGRPPRLPRPRPRPFGMPRP, the “shrunken log2 fold change” value amounted to 0.228.
